From article PMC4582940 come the findings set out here.

Assay [1] deals with c-Met recombinant chimera (R&D Systems) (UniProt P08581). In words: SPR; c-Met chimera amine-coupled to a CM5 chip (200-1000 RU), Biacore 2000, 25 °C, HBS-EP pH 7.4, 5 uL/min; CSF diluted 1:1 in PBS flowed over; samples: septic nosocomial meningitis (n = 33).
Assay [2] has the same target. In words: SPR; c-Met chimera amine-coupled to a CM5 chip (200-1000 RU), Biacore 2000, 25 °C, HBS-EP pH 7.4, 5 uL/min; CSF diluted 1:1 in PBS flowed over; samples: septic community-acquired meningitis (n = 22).

Sequence of UniProt P08581 (P08581 25-932, change not shown): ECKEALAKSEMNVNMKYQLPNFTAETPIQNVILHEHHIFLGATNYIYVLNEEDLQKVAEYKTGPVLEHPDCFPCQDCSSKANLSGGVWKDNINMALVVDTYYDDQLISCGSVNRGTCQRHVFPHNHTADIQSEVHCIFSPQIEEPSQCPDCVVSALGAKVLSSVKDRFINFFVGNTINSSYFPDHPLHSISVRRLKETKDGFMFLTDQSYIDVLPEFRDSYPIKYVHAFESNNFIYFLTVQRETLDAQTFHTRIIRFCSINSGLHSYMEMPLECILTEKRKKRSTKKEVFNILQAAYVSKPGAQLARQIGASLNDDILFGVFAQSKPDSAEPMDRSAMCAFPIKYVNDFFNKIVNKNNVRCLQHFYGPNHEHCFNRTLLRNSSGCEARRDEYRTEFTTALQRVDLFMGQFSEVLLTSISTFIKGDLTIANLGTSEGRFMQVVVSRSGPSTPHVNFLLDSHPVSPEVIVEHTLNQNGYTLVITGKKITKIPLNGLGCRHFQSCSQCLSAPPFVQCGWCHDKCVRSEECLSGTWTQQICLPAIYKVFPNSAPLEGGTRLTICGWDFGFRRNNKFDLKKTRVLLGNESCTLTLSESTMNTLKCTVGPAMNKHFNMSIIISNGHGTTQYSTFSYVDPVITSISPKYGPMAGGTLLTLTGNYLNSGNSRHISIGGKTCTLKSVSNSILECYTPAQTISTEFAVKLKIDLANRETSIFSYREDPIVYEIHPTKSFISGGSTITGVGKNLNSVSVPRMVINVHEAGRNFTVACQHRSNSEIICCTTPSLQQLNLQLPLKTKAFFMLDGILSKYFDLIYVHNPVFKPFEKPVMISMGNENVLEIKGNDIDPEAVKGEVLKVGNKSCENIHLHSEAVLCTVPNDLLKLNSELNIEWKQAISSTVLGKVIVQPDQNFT

With “Hepatocyte growth factor (CSF-derived) (ligand)”, the C-Met binding (RU), median of the group in assay [1] was 27.3 RU; in assay [2], 56 RU.
